In the supplement of paper PMC7125110:
± gives the standard error. Variants at the floor of the assay were thinned out.

B1: glmS ribozyme (parent)
chain: AUAAAAGCGCCAGAACUACAGAAAUGUAGUUGACGAGGAGGAGGUUUAUCGAAUUUUCGGCGGAUGCCUCCAAA

Legend:
Conditions in all cases: with glucosamine-6-phosphate
glucosamine-6-phosphate [1] = variants of: B1; assay: self-cleavage kobs at 640 uM GlcN6P; higher = faster cleavage; RNA array
Method in brief: (§1)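 In situ transcription by E. coli RNA polymerase produced barcoded ribozyme variants on sequenced MiSeq chips, and a hybridised Cy3 probe tracked them at 37 °C. Glucosamine-6-phosphate was flowed in at 40 μM to 10 mM in HEPES/KCl/Mg(OAc)2 buffer. kcat and KM were taken from weighted Michaelis–Menten fits of kobs values from exponential decay fits.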

glucosamine-6-phosphate [2] = variants of: B1; assay: self-cleavage kobs at 2500 uM GlcN6P; higher = faster cleavage; RNA array
Method in brief: as §1

glucosamine-6-phosphate [3] = variants of: B1; assay: self-cleavage kobs at 10000 uM GlcN6P; higher = faster cleavage; RNA array
Method in brief: as §1

Variant | self-cleavage kobs at 640 uM GlcN6P (glucosamine-6-phosphate [1]) | self-cleavage kobs at 2500 uM GlcN6P (glucosamine-6-phosphate [2]) | self-cleavage kobs at 10000 uM GlcN6P (glucosamine-6-phosphate [3])
G13U G37U G40A U69G | < 1e-05 s⁻¹ | < 1e-05 s⁻¹ | < 1e-05 s⁻¹
A12G C16G C50G C68G | 0.000104 ± 4.5e-05 s⁻¹ | – | –
A14U A36G G40A G41A U54A U57A C71U | < 1e-05 s⁻¹ | – | –
A14G G29U U30G A33C C61G G66U | < 1e-05 s⁻¹ | < 1e-05 s⁻¹ | –
A15U G35U A39C | < 1e-05 s⁻¹ | < 1e-05 s⁻¹ | –
C11U G29U U54A | 0.000113 ± 2.1e-05 s⁻¹ | 0.000171 ± 4.4e-05 s⁻¹ | 0.000577 ± 0.00014 s⁻¹
G13A G59A G62A | < 1e-05 s⁻¹ | – | –
A12U G38C A39C | < 1e-05 s⁻¹ | – | < 1e-05 s⁻¹
A15C G37C | < 1e-05 s⁻¹ | – | –
A14U U31C A39C | 7.42e-05 ± 1.4e-05 s⁻¹ | 0.000324 ± 6.8e-05 s⁻¹ | 0.000464 ± 6e-05 s⁻¹
A15U G32A U46G C50G | 8.2e-05 ± 2.3e-05 s⁻¹ | – | –
A15G A36U U45G U46G A64G | < 1e-05 s⁻¹ | – | –
G13U C16A A39G G40U C68G | < 1e-05 s⁻¹ | < 1e-05 s⁻¹ | –
C11U A53U C70G | 0.000189 ± 5.3e-05 s⁻¹ | – | –
A12U A15G U47G | 0.00207 ± 0.00042 s⁻¹ | – | –
A15G U30A C67A C70U | 0.000654 ± 0.00016 s⁻¹ | 9.99e-05 ± 4.6e-05 s⁻¹ | 0.00115 ± 0.00026 s⁻¹
A15U A36C U56G U69A | 7.26e-05 ± 3.4e-05 s⁻¹ | – | –
A12G A15C G40U | < 1e-05 s⁻¹ | – | –
A15G A48U C70G | 5.16e-05 ± 1.9e-05 s⁻¹ | 6.9e-05 ± 1.6e-05 s⁻¹ | –
A14U G62U U69A | < 1e-05 s⁻¹ | – | –
G13A G29C G66U | < 1e-05 s⁻¹ | – | –
G13C A42U U57A G63C | < 1e-05 s⁻¹ | < 1e-05 s⁻¹ | –
A12C U47C G60U | < 1e-05 s⁻¹ | – | –
C11U A48U G66U | < 1e-05 s⁻¹ | – | –

Variant | self-cleavage kobs at 640 uM GlcN6P (glucosamine-6-phosphate [1]) | self-cleavage kobs at 2500 uM GlcN6P (glucosamine-6-phosphate [2]) | self-cleavage kobs at 10000 uM GlcN6P (glucosamine-6-phosphate [3])
A15U A52U G66C C71U | < 1e-05 s⁻¹ | – | –
A12U A15C C71A | 0.000661 ± 0.00015 s⁻¹ | 0.0015 ± 0.00053 s⁻¹ | –
A15G A42U C71U | 7.41e-05 ± 1.8e-05 s⁻¹ | 0.000188 ± 5.3e-05 s⁻¹ | –
A14C G41A C70U | 0.00173 ± 0.00026 s⁻¹ | 0.00489 ± 0.0012 s⁻¹ | 0.0111 ± 0.0021 s⁻¹
C11G C34G G59A | < 1e-05 s⁻¹ | < 1e-05 s⁻¹ | –
G13U G29C G60A U69C C70U | < 1e-05 s⁻¹ | – | –
C11G C50A A52G | < 1e-05 s⁻¹ | – | –
A12C U30A G35A | < 1e-05 s⁻¹ | < 1e-05 s⁻¹ | < 1e-05 s⁻¹
A14G U54A C58A C68U | 9.22e-05 ± 1.9e-05 s⁻¹ | 0.000131 ± 2.9e-05 s⁻¹ | –
G13U A64G U65G | 8.37e-05 ± 3e-05 s⁻¹ | 5.07e-05 ± 1.7e-05 s⁻¹ | –
G13A C16G A36C G41U A52U | < 1e-05 s⁻¹ | – | –
G13A U54C C70U | 9.94e-05 ± 2.2e-05 s⁻¹ | 0.000291 ± 9.6e-05 s⁻¹ | –
A14C U69C C71U | 4.76e-05 ± 8.5e-06 s⁻¹ | 0.000131 ± 1.4e-05 s⁻¹ | –
A14C G35U C61A | < 1e-05 s⁻¹ | – | –
C11U G35U G44A | < 1e-05 s⁻¹ | < 1e-05 s⁻¹ | –
A14C C61U C68G | 0.0001 ± 3.3e-05 s⁻¹ | – | –
A15G A42C A64C U69C | < 1e-05 s⁻¹ | – | –
A15U A42C C67U C70G | < 1e-05 s⁻¹ | < 1e-05 s⁻¹ | –
C11U G13U A14G G38C | < 1e-05 s⁻¹ | – | –
A12G U47G C50A C68G | 0.000111 ± 4.4e-05 s⁻¹ | – | –
A15U A33G G41U | < 1e-05 s⁻¹ | – | –
A14U G26A C68G | 5e-05 ± 2e-05 s⁻¹ | 4.16e-05 ± 1.8e-05 s⁻¹ | –
C11G U30A A33C | < 1e-05 s⁻¹ | < 1e-05 s⁻¹ | –
C11U A33U A53C | < 1e-05 s⁻¹ | – | –

Variant | self-cleavage kobs at 640 uM GlcN6P (glucosamine-6-phosphate [1]) | self-cleavage kobs at 2500 uM GlcN6P (glucosamine-6-phosphate [2]) | self-cleavage kobs at 10000 uM GlcN6P (glucosamine-6-phosphate [3])
A15U A36G G41U U47A | < 1e-05 s⁻¹ | – | –
A14G A15G C34G U69A | 0.000303 ± 0.00014 s⁻¹ | – | –
G13C G43U G59U | < 1e-05 s⁻¹ | < 1e-05 s⁻¹ | –
G13A G44C | < 1e-05 s⁻¹ | – | –
A12C C58U C70U | 6.75e-05 ± 2.5e-05 s⁻¹ | 7.09e-05 ± 3.2e-05 s⁻¹ | –
C11U G29U G37C C70A | 0.000166 ± 5.6e-05 s⁻¹ | – | –
A15U U45A G66U | 4.46e-05 ± 1.6e-05 s⁻¹ | – | –
A14G A42C G63U | < 1e-05 s⁻¹ | – | –
A15U U45C C50G U69G | < 1e-05 s⁻¹ | < 1e-05 s⁻¹ | –
C11U G38A C67G | 7.1e-05 ± 3.3e-05 s⁻¹ | – | –
G13U U30A A53G | 5.33e-05 ± 1.9e-05 s⁻¹ | – | 4.23e-05 ± 1.5e-05 s⁻¹
G13U A14U G35C U46A G51U U65A | < 1e-05 s⁻¹ | – | –
C11U G43A A48U A53C C61U | < 1e-05 s⁻¹ | < 1e-05 s⁻¹ | –
G13A A14C U30G | 4.76e-05 ± 1.8e-05 s⁻¹ | – | –
G13U A14G G29C U49A | < 1e-05 s⁻¹ | – | –
A15U G38U G40C A52U C58U C61G | < 1e-05 s⁻¹ | – | –
A12C G38C U49C C50A | < 1e-05 s⁻¹ | < 1e-05 s⁻¹ | –
A14U G29A U47G C50U A53C C70G | 0.00022 ± 4.5e-05 s⁻¹ | 0.000165 ± 3.4e-05 s⁻¹ | –
A12G A36U | < 1e-05 s⁻¹ | – | –
G13U U31C G62A | < 1e-05 s⁻¹ | – | –
A15G G29U U55G A64G | 0.000144 ± 2.7e-05 s⁻¹ | – | –
A15G C16A U30A A64G | 0.000408 ± 0.00011 s⁻¹ | 0.00162 ± 0.00041 s⁻¹ | –
